To fix the notation:
B1: Hsp70 Ssa1 (natural protein)
chain: not shown
notes: Ssa1, yeast cytosolic Hsp70; also called yeast Hsp70; source: E. coli BL21(DE3), purified by two chromatography steps (said of all recombinant proteins, 'unless otherwise noted')
B2: SYS (Sis1_(1–121)-Ydj1_(101–255)-Sis1_(258–352)) (other, yeast, UniProt P25294 1-121, looked up)
chain: MVKETKLYDLLGVSPSANEQELKKGYRKAALKYHPDKPTGDTEKFKEISEAFEILNDPQKREIYDQYGLEAARSGGPSFGPGGPGGAGGAGGFPGGAGGFSGGHAFSNEDAFNIFSQFFGGAGGAQRPRGPQRGKDIKHEISASLEELYKGRTAKLALNKQILCKECEGRGGKKGAVKKCTSCNGQGIKFVTRQMGPMIQRFQTECDVCHGTGDIIDPKDRCKSCNGKKVENERKILEVHVEPGMKDGQRIVFKGEADQAPDVIPGDVVFIVSERPHPNFKRDGDDLIYTLPLSFKESLLGFSKTIQTIDGRTLPLSRVQPVQPSQTSTYPGQGMPTPKNPSQRGNLIVKYKVDYPISLNDAQKRAIDENF
notes: Ydj1, yeast, residues 101–255 (central region); Sis1, yeast, residues 258–352 (CTDII and dimerization region); also called chimera SYS; SYS chimera; source: E. coli BL21(DE3), purified by two chromatography steps
B3: Sis1_Δ_(121–257) (natural protein, yeast, UniProt P25294 1-352, looked up)
chain: MVKETKLYDLLGVSPSANEQELKKGYRKAALKYHPDKPTGDTEKFKEISEAFEILNDPQKREIYDQYGLEAARSGGPSFGPGGPGGAGGAGGFPGGAGGFSGGHAFSNEDAFNIFSQFFGHPNFKRDGDDLIYTLPLSFKESLLGFSKTIQTIDGRTLPLSRVQPVQPSQTSTYPGQGMPTPKNPSQRGNLIVKYKVDYPISLNDAQKRAIDENF
notes: source: E. coli BL21(DE3), purified by two chromatography steps
B4: wild-type Sis1 (natural protein, yeast, UniProt P25294 1-352, looked up)
chain: MVKETKLYDLLGVSPSANEQELKKGYRKAALKYHPDKPTGDTEKFKEISEAFEILNDPQKREIYDQYGLEAARSGGPSFGPGGPGGAGGAGGFPGGAGGFSGGHAFSNEDAFNIFSQFFGGSSPFGGADDSGFSFSSYPSGGGAGMGGMPGGMGGMHGGMGGMPGGFRSASSSPTYPEEETVQVNLPVSLEDLFVGKKKSFKIGRKGPHGASEKTQIDIQLKPGWKAGTKITYKNQGDYNPQTGRRKTLQFVIQEKSHPNFKRDGDDLIYTLPLSFKESLLGFSKTIQTIDGRTLPLSRVQPVQPSQTSTYPGQGMPTPKNPSQRGNLIVKYKVDYPISLNDAQKRAIDENF
notes: Sis1, yeast cytosolic Type II DnaJ/Hsp40, full length wild type (residues to 352 by the SYS formula); no tag is stated; also called native Sis1; full length wild-type Sis1; source: E. coli BL21(DE3), purified by two chromatography steps
B5: Sis1_Δ_(124–174) (natural protein, yeast, UniProt P25294 1-352, looked up)
chain: MVKETKLYDLLGVSPSANEQELKKGYRKAALKYHPDKPTGDTEKFKEISEAFEILNDPQKREIYDQYGLEAARSGGPSFGPGGPGGAGGAGGFPGGAGGFSGGHAFSNEDAFNIFSQFFGGSSTYPEEETVQVNLPVSLEDLFVGKKKSFKIGRKGPHGASEKTQIDIQLKPGWKAGTKITYKNQGDYNPQTGRRKTLQFVIQEKSHPNFKRDGDDLIYTLPLSFKESLLGFSKTIQTIDGRTLPLSRVQPVQPSQTSTYPGQGMPTPKNPSQRGNLIVKYKVDYPISLNDAQKRAIDENF
notes: as for B3

One data set concerns the target T1, full-length Ydj1 (yeast, UniProt P25491 1-409).
T1 construct: Ydj1, yeast cytosolic Type I DnaJ/Hsp40, full length; also called wild-type Ydj1; source: E. coli BL21(DE3), purified by two chromatography steps
T1 sequence (looked up): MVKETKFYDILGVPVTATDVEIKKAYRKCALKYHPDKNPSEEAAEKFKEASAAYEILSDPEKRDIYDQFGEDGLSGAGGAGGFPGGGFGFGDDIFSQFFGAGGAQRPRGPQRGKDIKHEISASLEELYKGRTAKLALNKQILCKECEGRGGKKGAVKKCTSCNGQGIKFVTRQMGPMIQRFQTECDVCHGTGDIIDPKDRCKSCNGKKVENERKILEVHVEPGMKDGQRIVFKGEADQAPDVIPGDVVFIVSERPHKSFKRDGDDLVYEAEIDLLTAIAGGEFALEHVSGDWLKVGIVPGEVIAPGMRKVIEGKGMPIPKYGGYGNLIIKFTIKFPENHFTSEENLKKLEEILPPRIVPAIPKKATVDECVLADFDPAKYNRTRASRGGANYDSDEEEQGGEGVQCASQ
The experiment in a line: ELISA; Sis1, variants or Ydj1 (100 µL at 200 nM) coated on the microplate; Ssa1 (100 nM) in 50 mM phosphate pH 7.4, 150 mM NaCl, 5 mM Mg-ATP, 1 h, 25°C; bound Ssa1 detected with α-Ssa1; Sis1 set as 100%. The following applies: both partners purified. For orientation: ELISA stands for enzyme-linked immunosorbent assay.

Data set [1] deals with B2. Described as above. The settings on record: both partners purified.
In the data set “Sis1_Δ_(121–257)” the target is B3. The description is as above. The settings on record: both partners purified.
Data set [2] concerns the molecule itself. The data set can be described thus: SEC-MALLS; Superdex 200 10/300 GL, buffer A (25 mM Tris-HCl pH 7.5, 500 mM NaCl); 25 µM protein without urea, 50–75 µM with urea up to 1 M.
The data set “Hsp70 Ssa1” deals with B1. The data set can be described thus: ELISA; Sis1, variants or Ydj1 (100 µL at 200 nM) coated on the microplate; Ssa1 (100 nM) in 50 mM phosphate pH 7.4, 150 mM NaCl, 5 mM Mg-ATP, 1 h, 25°C; bound Ssa1 detected with α-Ssa1; Sis1 set as 100%. The settings on record: both partners purified.

Hsp70 Ssa1, sequence (P10591 whole entry): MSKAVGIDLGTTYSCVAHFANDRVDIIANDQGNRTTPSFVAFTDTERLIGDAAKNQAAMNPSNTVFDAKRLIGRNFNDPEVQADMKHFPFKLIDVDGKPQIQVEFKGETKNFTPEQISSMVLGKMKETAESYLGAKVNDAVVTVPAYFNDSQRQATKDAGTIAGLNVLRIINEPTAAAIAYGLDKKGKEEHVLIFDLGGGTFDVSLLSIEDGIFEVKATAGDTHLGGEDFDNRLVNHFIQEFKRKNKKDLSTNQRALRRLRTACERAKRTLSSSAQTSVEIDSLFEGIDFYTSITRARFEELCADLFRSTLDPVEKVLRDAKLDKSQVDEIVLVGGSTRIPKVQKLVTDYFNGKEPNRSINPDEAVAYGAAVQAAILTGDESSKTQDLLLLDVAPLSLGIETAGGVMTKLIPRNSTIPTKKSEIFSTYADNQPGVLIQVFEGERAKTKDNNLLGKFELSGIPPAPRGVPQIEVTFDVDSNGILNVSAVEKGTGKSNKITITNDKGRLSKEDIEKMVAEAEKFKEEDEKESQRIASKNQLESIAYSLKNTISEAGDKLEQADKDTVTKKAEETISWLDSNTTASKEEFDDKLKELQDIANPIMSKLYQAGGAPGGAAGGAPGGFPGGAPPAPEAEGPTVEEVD

On to B1, for which the results for the “percent of the binding ability of Sis1” value (with full-length Ydj1; in data set [1]; with Sis1_Δ_(121–257)) were approximately 30%, approximately 50% and approximately 50%, respectively.
One may read the stoichiometry N as a count of units in the complex or per binding partner. In the case of B2, in data set [2], the “stoichiometry N” value was determined as 2.
The same measure, in the same setting: next, B3: 2.
For B4, the “stoichiometry N” value in data set [2] came out at 2. Further, the binding result with Hsp70 Ssa1 is “binds”.
For B5 the same measures were 2 and “binds”.

The values are drawn from publication PMC3515540, “Identification of Regions Involved in Substrate Binding and Dimer Stabilization within the Central Domains of Yeast Hsp40 Sis1” (PLoS ONE, 2012).
